# According to patent CN111944047A (CHONGQING PREC BIOTECH CO LTD, dated 2020):
# T1: hBCMA-hFc (human, UniProt Q02223 1-54, limits assumed)
# T1 construct: not shown: human Fc (hFc)
# T1 sequence (looked up): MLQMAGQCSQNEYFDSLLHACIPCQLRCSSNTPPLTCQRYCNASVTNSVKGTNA
# B1: ScFv1 (scFv)
# scFv: DIVMTQSPDSLAVSLGERATINCRASESVSIHGTHLMHWYQQLPGTPPKLLIYAASNLESGVPDRFSGSGSGTDFTLKISPVEAEDVGVYYCQQSIEDPRTFGGGTKLEIKGSTSGSGKPGSGEGSTKGQVQLVQSGPALVKPGASVKVSCKASGYTFTDYYMNWVRQAHGQGLEWMGVINPYNGGTDYNQKFKGRVTMTRDTSISTAYMELSSLRSEDTAVYYCARSVYDYPFDYWGQGTLVTVSS
# notes: The scFv is VL-Linker-VH, expressed in CHO cells and purified; Any tag on the purified protein is not described for ScFv1; also called 靶向BCMA人源化单克隆抗体; 抗BCMA的人源化单链抗体
# B2: ScFv2 (scFv)
# scFv: DIVLTQSPASLAVSLGQRATITCRASESVSIHGTHLMHWYQQKPGQPPVLVIYAASNLESGVPARFSGSGSGTDFTLKIHPVEAEDVGVYYCQQSIEDPRTFGGGTKLEIKGSTSGSGKPGSGEGSTKGQVQLVQSGPEVKKPGASVKVSCKASGYTFTDYYMNWVRQMHGKGLEWMGVINPYNGGTDYNQKFKGRVTITADKSTSTAYMELSSLRSEDTAVYYCARSVYDYPFDYWGQGTLVTVSS
# notes: also called 人源化ScFv2; 靶向BCMA人源化单克隆抗体
# Target: T1, hBCMA-hFc
# Assay: Fortebio Octet K2 / Nicoya OpenSPR, hBCMA-hFc loaded on sensor, scFv in solution
Binder,Kd [nM],koff [s⁻¹],kon [M⁻¹ s⁻¹]
B1,4.65,0.000438,94200
B2,16.4,0.00437,266000
